The series is described as follows: soluble on expression in E. coli; label from the status in PepcDB or PDB records.
For “MSYYHHHHHHDYDIPTENLYFQGAMGRADPRNQRVLLDEYSRQRGQITAGGQLLAYSVATDGRFRFLRVYPNPEVYAPVTGFYSLRYSSTALERAEDPILNGSDRRLFGRRLADFFTGRDPRGGNVDTTINPRIQQAGWDAMQQGCYGPCKGAVVALEPSTGKILALVSSPSYDPNLLASHNPEVQAQAWQRLGDNPASPLTNRAISETYPPGSTFKVITTAAALAAGATETEQLTAAPTIPLPGSTAQLENYGGAPCGDEPTVSLREAFVKSCNTAFVQLGIRTGADALRSMARAFGLDSPPRPTPLQVAESTVGPIPDSAALGMTSIGQKDVALTPLANAEIAATIANGGITMRPYLVGSLKGPDLANISTTVGYQQRRAVSPQVAAKLTELMVGAEKVAQQKGAIPGVQIASKTGTAEHGTDPRHTPPHAWYIAFAPAQAPKVAVAVLVENGADRLSATGGALAAPIGRAVIEAALQGEP”, the “soluble on expression in E. coli” value was “soluble”.

Turning to “MTAAADLILYNGDVHVLTDTATPADPAHSAVAIRDGRIVGLSNDYDAAFRADTGTREVDLGGRVVVPGFVDAHTHLAVLGKHGVHADLRGADSPAAATARLAERARETDAGWVLGFGYDDSQWSAALSTADLDAVSEARPVAAIREDMHTATVNGVALAEHGDEMPAADVGEDGRIVEDAVEAVYDATDPDLAGTRPLIEAAQREANERGVTAVHEMVRDSHAPRVYRELDAAGELSVRVRLNYWADHLDAVLETGLVTNHGGGMVTVGGIKTYTDGSLGGRTAKLSEPYADAPGETGQWVVDPSALAALVERADDAGLQVVAHAIGDAAVDAVLDAYEDAGERRHRIEHAELASDDAIERMADLGVVASVQPNFLKWAGSGGLYADRLGTARREASNRFADMLDAGVDVAFGSDCMPLAPLVGVHHAVTAPADAQRLSVTAALRAYTSGGARAGCREDEQGVIREGALADLTVLDASPWEHADAIADEVGVSMTVVDGAVVYDGRLEHHHHHH”, the “soluble on expression in E. coli” value is “not soluble”.

As for “MTAAQGNSNETLFSSYKMGRFDLSHRVVLAPMTRCRALNGVPNAALAEYYAQRTTPGGFLISEGTMVSPGSAGFPHVPGIYSDEQVEAWKQVVEAVHAKGGFIFCQLWHVGRASHAVYQPNGGSPISSTNKPISENRWRVLLPDGSHVKYPKPRALEASEIPRVVEDYCLSALNAIRAGFDGIEIHGAHGYLIDQFLKDGINDRTDQYGGSIANRCRFLKQVVEGVVSAIGASKVGVRVSPAIDHLDATDSDPLSLGLAVVGMLNKLQGVNGSKLAYLHVTQPRYHAYGQTESGRQGSDEEEAKLMKSLRMAYNGTFMSSGGFNKELGMQAVQQGDADLVSYGRLFIANPDLVSRFKIDGELNKYNRKTFYTQDPVVGYTDYPFLAPFSRL”, the “soluble on expression in E. coli” value is recorded as “soluble”.

As for “MTADDSPSDRWGPRCTTRGPGSDPRFDVPVRGVDVGPETRCAHYHGPRDVIAIRFACCDVFYPCHRCHEETATHPPERWPHDQFNASAVLCGRCRTVLTIEQYLDADHTCPACGAAFNPNCARHHDRYFCVGLEHHHHHH”, the “soluble on expression in E. coli” value was “not soluble”.

As for “MTAELLVNVTPSETRVAYIDGGILQEIHIEREARRGIVGNIYKGRVSRVLPGMQAAFVDIGLDKAAFLHASDIMPHTECVAGEEQKQFTVRDISELVRQGQDLMVQVVKDPLGTKGARLTTDITLPSRYLVFMPGASHVGVSQRIESESERERLKKVVAEYCDEQGGFIIRTAAEGVGEAELASDAAYLKRVWTKVMERKKRPQTRYQLYGELALAQRVLRDFADAELDRIRVDSRLTYEALLEFTSEYIPEMTSKLEHYTGRQPIFDLFDVENEIQRALERKVELKSGGYLIIDQTEAMTTVDINTGAFVGHRNLDDTIFNTNIEATQAIARQLRLRNLGGIIIIDFIDMNNEDHRRRVLHSLEQALSKDRVKTSVNGFSALGLVEMTRKRTRESIEHVLCNECPTCHGRGTVKTVETVCYEIMREIVRVHHAYDSDRFLVYASPAVAEALKGEESHSLAEVEIFVGKQVKVQIEPLYNQEQFDVVMM”, the “soluble on expression in E. coli” value is “soluble”.

For the sequence “MTAIEQTEAVRPRGTRLPRRARRNQLLGAAQEVFVAQGYHAAAMDDIAERAGVSKPVLYQHFPGKLDLYLALLDQHCEALIQSVRSALASTSDNKQRVRATMDAYFAYVEDDGGAFRLVFESDLTNEPAVRERVDKVTNECAEAICDVIAEDTGLSRAESMLLASGLGGLAQVVARSWLHSDRSVPRDQAVQLLTSLAWRGIAGFPLHGIEQH”, the “soluble on expression in E. coli” value is “not soluble”.

Consider “MTAQPVETIKIDSEAGELGFERLGVLIKEYKPEKVVLGLPKHMNGDEGIRAEASRDYGTKLANEFGLEVAYQDERLTTAQAEKVLIDGGVRRKERKKSIDKLAAVLILQNYLDAHALKL”, for which the “soluble on expression in E. coli” value was “not soluble”.

In the case of “MTARYIAIDWGSTNLRAWLYQGEECLESRQSEAGVTRLNGRSPAAVLAEITQHWRDGATPVVMAGMVGSNVGWKIAPYLPLPAAFSDIGQQLTAVGDNIWIIPGLCVSRDDNHNVMRGEETQLLGARALAPSSVYVMPGTHCKWVLADRRQIHDFRTVLTGELHHLLLQLSLVGAGLPPQETSAAAFAAGLQRGINNPAVLPQLFEVRASHVLGALPREQVSEFLSGLLIGAEVATLSDTFAGQQAISLVAGSSLTSRYQQAFAAIGREVSAVAGDTAFQTGIRSIAYAVAN”, the “soluble on expression in E. coli” value was “soluble”.

Regarding “MTCEVLITEFVAHPSDITDAYARYQQRIQDAPLHIVCSSPRPLPSKGSAYAQWSLRCESAYAQKSHPELMQCYELRSLVTYEETPDPDDSLIEKFFFEDCAEPTVYSASVNRLDIELGAVDTRCTDELCIVTPVFLAHSEHAEVLQSLYEVLVSNADPVAYAASIAECDDISQANLIGLLWVRDAQRTMSNVGDQIYAMGKTAWTGWILVEASKQEELQLQLSELIDATNAVAYLTATPW”, the “soluble on expression in E. coli” value is “soluble”.

As for “MTCVGDIMLAGSATPTLSRSGYDYPFAKTAQELRRGDIAMGNLEAPLTERGTEYRDKTYRFRTNPIAAAALKRAGFSVLTLANNHMMDYGNEGLQDTLATLSRHGIAHTGAGASLAEARREAVVSVRGKRIAFLAYSLTFPSEFYAGPNRPGTAPGYAPHVREDIRRAKAEADYVVVSFHWGAERAEFPKQYQTETARLAIDAGADAIIGHHPHVLQGIEFYRGKPILYSLGNFAFGSRSTAADRSVMARLTLSDEETSVELVPLNVLHRETRYQPGILAGRKGAEVIERLNRLSQPFGTVISGSAGRFRARTSGADQRIATRLEHHHHHH”, the “soluble on expression in E. coli” value is recorded as “not soluble”.

Consider “MTDAQSRDEKGIPASIYDGIFKNNRQIKPGNPNELKMVMGLKLKEVNKDCADAVLRVSKATLSWEIVREIMNATERLIQERVSDPTGQVAIAVDPPSSWSKSVTDFLASCYKLSPSPNFKFLELLAILTGKSQYLILQWFDTAEEEKREKNQKLETATFKRHCPWRKRHRLIQPLSNATAIPFLEAAFQKSSIPGSVELYDLQLKTNWFICELKAWFTARRVAEEIKGKLSELTGVQGVAKDQS”, for which the “soluble on expression in E. coli” value is “not soluble”.

For “MTDEKKDDRPVYQAACHCGTVRFELRLTDGLRTARRCNCSLCRMRGAVAVSANLGDITVTQGEEALTLYQFHTREAKHYFCSRCGIYTFHQRRSAPDQYGVNVACIEGMSPFDFADVPVSEGRVHPKDRVDGGVGVAGWLRYEGNPEWGQGLEHHHHHH”, the “soluble on expression in E. coli” value was “soluble”.

As for “MTDGPIKVNSEIGALKTVLLKRPGKELENLVPDYLDGLLFDDIPYLEVAQKEHDHFAQVLREEGVEVLYLEKLAAESIENPQVRSEFIDDVLAESKKTILGHEEEIKTLFATLSNQELVDKIMSGVRKEEINPKCTHLVEYMDDKYPFYLDPMPNLYFTRDPQASIGHGITINRMFWRARRRESIFIQYIVKHHPRFKDANIPIWLDRDCPFNIEGGDELVLSKDVLAIGVSERTSAQAIEKLARRIFENPQATFKKVVAIEIPTSRTFMHLDTVFTMIDYDKFTMHSAILKAEGNMNIFIIEYDDVNKDIAIKQSSHLKDTLEDVLGIDDIQFIPTGNGDVIDGAREQWNDGSNTLCIRPGVVVTYDRNYVSNDLLRQKGIKVIEISGSELVRGRGGPRCMSQPLFREDI”, the “soluble on expression in E. coli” value was “not soluble”.

Consider “MTDHTMKKNPVSIPHTVWYADDIRRGEREAADVLGLTLYELMLRAGEAAFQVCRSAYPDARHWLVLCGHGNNGGDGYVVARLAKAVGIEVTLLAQESDKPLPEEAALAREAWLNAGGEIHASNIVWPESVDLIVDALLGTGLRQAPRESISQLIDHANSHPAPIVAVDIPSGLLAETGATPGAVINADHTITFIALKPGLLTGKARDVTGQLHFDSLGLDSWLAGQETKIQRFSAEQLSHWLKPRRPTSHKGDHGRLVIIGGDHGTAGAIRMTGEAALRAGAGLVRVLTRSENIAPLLTARPELMVHELTMDSLTESLEWADVVVIGPGLGQQEWGKKALQKVENFRKPMLWDADALNLLAINPDKRHNRVITPHPGEAARLLGCSVAEIESDRLHCAKRLVQRYGGVAVLKGAGTVVAAHPDALGIIDAGNAGMASGGMGDVLSGIIGALLGQKLSPYDAACAGCVAHGAAADVLAARFGTRGMLATDLFSTLQRIVNPEVTDKNHDESSNSAP”, for which the “soluble on expression in E. coli” value is “soluble”.

As for “MTDIETIYKKLSHVISKEDFLQRIQEKVENMGGLCDETMAAMLVANELGFSDAGRDSIKIENITPESGPVNFIARIISVFDTKEFTRNDGTIGRVGNLIVGDETGKVKLTLWDNMADLIKMGKIKAGQSVQVSGFAKQGYSGVEVNIGNNGVLTESEEEIDVVSNSYKIKDIKDGMGDINLNGKVLEVSEIRTFQRKDGNSGRVGNLMLGDETGTLRVTLWDDKTDFLSQVEYGDSIELINAYARENAFSQKVELQVGNRSIIRKSEKKIEYEEEFTPIDDIKADMNNINISGRILDISEVRTFEKKDGSTGRVGNVLLGDSTGKIRLTLWDEKTDILEEIDFDETVEVLNAYSRENTFSQQVELNLGARGIIQRSEKKVEYREKFTDIADIIPGESYSIQGKVAEIGELREFEKEDGTENVVANLQLKDDTGSIRLTLWGEQAYVIEDLDIDSEIQIIDAYARYGLNEEIELSVGNRSRVIILLEHHHHHH”, the “soluble on expression in E. coli” value is given as “soluble”.

“MTDLTGILYIVATPIGNLQDITQRALETFAQVDLIAAEDTRHSGLLLSHYGIKKPFFALHDHNEQEKAHILVEKLKQGSNIALISDAGTPLISDPGFHLVRQCREAGIRVVPLPGACAAITALCASGIASDRFCFEGFLPAKSKARKDKLENIAEEDRTLIFYESTHRILDTLEDMQAVLGEERYIVLAREMTKTWETITGNTIKNLREWLLEDPNRTKGEMVLIVEGKPKSDNNDEISPQAVKALELIAEELPLKKAAAIVAELYGYKKNALYQFGLAHLEK”: the “soluble on expression in E. coli” value was “not soluble”.

Take “MTDNTRLRIAMQKSGRLSDDSRELLARCGIKINLHTQRLIAMAENMPIDILRVRDDDIPGLVMDGVVDLGIIGENVLEEELLNRRAQGEDPRYFTLRRLDFGGCRLSLATPVDEAWDGPLSLNGKRIATSYPHLLKRYLDQKGISFKSCLLNGSVEVAPRAGLADAICDLVSTGATLEANGLREVEVIYRSKACLIQRDGEMEESKQQLIDKLLTRIQGVIQARESKYIMMHAPTERLDEVIALLPGAERPTILPLAGDQQRVAMHMVSSETLFWETMEKLKALGASSILVLPIEKMME”: the “soluble on expression in E. coli” value is given as “soluble”.

With “MTDRKIRQISALLIEVYNGIMQVEDKYLRTTQFRDITVKEVHTIDAITMYDYKTTTAVARQLRLSPGTVTASIDKLVRKGYVVRLQSKDDQRVIRLGLTRRGRLIYRAHQSFHRQMTESFLNGMDPEQVDIIEHSLLNLQTFLQIADEKGDSNEND”, the “soluble on expression in E. coli” value is “not soluble”.

Regarding “MTDSDNPRRVLLKLSGEAFGGGKVGIDTQVIRRIAEEIVPAVQQGVQVAIVVGGGNFFRGAELQQAGIDRSRGDYMGMLGTVMNCLALQDFLEQEGQATRVQTAITMGQVAEPYIPLKAIRHLEKGRVVIFGAGAGMPYFSTDTVSIQRSLEIHCDEVLMGKNGVDGVYTADPRKDENAKRFETLSYNRALVDNLAVMDASALSMARDNKKRIRVFGLEEPGNVTRALVGDEIGTLVSTAESRVAELEHHHHHH”, the “soluble on expression in E. coli” value is “soluble”.

Values taken from the DeepSol protein solubility set.
